Changes are numbered by the printed parent chain. Numbers in names are those of the source.
B1: TP from C. pacificum (Caldanaerobacter subterraneus subsp. tengcongensis MB4) (protein)
chain: MDMVKKTKKPIYPFEDWTIRETEFSIETNYRNETIFAQANGYMGMRGNFEEGYSGPDGTSLKGTYINGFYEIHDIIYPEGGYGFAKTGQTMLNVADSKIIELYVGEEKFDLLKGKIHFYERVLDMKKGCVERKIKWESPSGKIVNVKIKRIVSLQRQHLAVISFSVEPVNFTGNIKFVSAIDGDVRNITESEDVRVGSNLKGRVLETVERGTNGFEGWISQKTQKSNLSYTCAMKNELIGTEKYEVLNNVKEDRVEVAVAFKAEKNRVYILNKFISYYTSKDCDKSETMKLALEEVRRAQEDGFCKIEKEQEEFLQSFWEDADVVIEGDKALQQGIRFNMFHLLQSVGRDGKTNIAAKGLTGEGYEGHYFWDSDIYILPFFLYTKPEIAKALIMYRYNLLDAARNRAKELGHKGALYPWRTIDGPECSAYFPAGTAQYHINADIVYALKKYVEATNDLDFLYDYGCEIVFETARFWEDLGAYIPLKGNKFCINTVTGPDEYTALVDNNAYTNYMAKMNLEYAYDIANKMKKEVPEKYQKVASKLNLKDEEIASWKRAANNMYLPYSEELDIIPQDDSFLYKERITVDEIPEDQFPLLLHWHYLNIYRYQICKQPDVLLLMFLQREKFTIEQLKKNFDYYEPITTHDSSLSPAIFSILANEIGYTDKAYKYFMMTARMDLDDYNDNVKDGIHAAAMAGSWSAVVNGFGGMRVYTDELHFTPGLPEGWKMLSFNVKYKGRKINVKLTHEESVFTLLEGEPIEIFYFDRRVLIKSGENILKGYEEK
B2: K450N: CsTP with mutation K450N (protein, listed as Caldanaerobacter subterraneus)
chain: B1 chain with K450N

How the values were obtained:
[1] = Donor specificity: phosphorolysis of lactotrehalose by CsTP variants (release of βGal1P and βGlc1P); type: biochemical
[2] = substrate: OC[C@H]1OC(O)[C@H](O)[C@@H](O)[C@@H]1O; assay: Synthetic activity of TP on monosaccharide acceptors (released phosphate, molybdate assay); type: biochemical, Carboxydibrachium pacificum; details: other: 60° C. and pH 6
[3] = Thermostability of the enzyme (residual activity after incubation); type: physicochemical; details: 1 hour incubation at 65° C.
[4] = Kinetic parameters of TP variants on galactose as acceptor; type: biochemical; details: Gal as acceptor; 60° C. and pH 6
Description: (§1) […] The synthetic activity of the enzyme was determined using a discontinuous assay in which the released phosphate is complexed by molybdate and ascorbic acid (Gawronski and Benson, 2004). […] Site-saturation mutagenesis was performed with degenerate primers (NNK) as described by […] et al. (2008), and random mutagenesis was performed with the GeneMorph II EZClone Domain Mutagenesis Kit (Stratagene) according to the manufacturer's instructions. The resulting DNA libraries were transformed into E. coli XL10-Gold, after which the cells were grown on solid LB medium in a Petri dish. Colonies were then transferred to 96-well microtiter plates containing liquid LB medium, in which enzyme expression was induced. Enzyme was extracted by the addition of lysis buffer with a liquid handling robot (Freedom EVO 200, Tecan) and the crude cell extracts were used for enzyme screening. Acceptor screening was performed with the phosphomolybdate assay described above. […] The clones with the highest activity were sequenced to identify the introduced mutations. The improved enzyme variants were then produced and purified as described for the wild-type enzyme, to allow a more detailed characterization.

[5] = Kinetic parameters of TP variants on glucose as acceptor; type: biochemical; details: Glc as acceptor; 60° C. and pH 6
Description: as §1

[6] = Phosphorolytic activity of the enzyme: specific activity, optimal pH and temperature; type: biochemical
Description: The phosphorolytic activity of the enzyme was determined using a discontinuous assay in which the released glucose is converted by glucose oxidase and peroxidase (GOD-POD)(Werner et al., 1970). The activity was assayed in 30 mM phosphate buffer at pH 7 and 60° C., using 30 mM disaccharide as substrate. The synthetic activity of the enzyme was determined using a discontinuous assay in which the released phosphate is complexed by molybdate and ascorbic acid (Gawronski and Benson, 2004). The activity was assayed in 50 mM MES buffer at pH 6 and 60° C., using 30 mM β-glucose-1-phosphate as donor and 500 mM of acceptor substrates.

[7] = Specific activity of TP variant on mannose as acceptor; type: biochemical; details: compared with wild-type CsTP
Description: The activity was assayed in 30 mM phosphate buffer at pH 7 and 60° C., using 30 mM disaccharide as substrate. The synthetic activity of the enzyme was determined using a discontinuous assay in which the released phosphate is complexed by molybdate and ascorbic acid (Gawronski and Benson, 2004). […] Site-saturation mutagenesis was performed with degenerate primers (NNK) as described by […] et al. (2008), and random mutagenesis was performed with the GeneMorph II EZClone Domain Mutagenesis Kit (Stratagene) according to the manufacturer's instructions. The resulting DNA libraries were transformed into E. coli XL10-Gold, after which the cells were grown on solid LB medium in a Petri dish. Colonies were then transferred to 96-well microtiter plates containing liquid LB medium, in which enzyme expression was induced. Enzyme was extracted by the addition of lysis buffer with a liquid handling robot (Freedom EVO 200, Tecan) and the crude cell extracts were used for enzyme screening. Acceptor screening was performed with the phosphomolybdate assay described above. […] The clones with the highest activity were sequenced to identify the introduced mutations. The improved enzyme variants were then produced and purified as described for the wild-type enzyme, to allow a more detailed characterization.

[8] = 100 mM lactotrehalose, pH 7 and 60° C.

Row | Molecule | donor preference in phosphorolysis of lactotrehalose [1] | Ratio βGal1P/βGlc1P [1, 8] | Release of βGal1P [1, 8] | Release of βGlc1P [1, 8] | Km [2] | kcat [2] | kcat/Km [2] | activity retained after incubation [3] | kcat [4] | Km [5] | kcat [5] | optimal pH for phosphorolytic activity [6] | optimal temperature for phosphorolytic activity [6] | specific activity ([6]; phosphorolysis of trehalose) | change in specific activity on mannose as acceptor [7]
1 | B1 | almost exclusively produces β-Glc1P | 0.04 | 0.13 U/mg | 3.0 U/mg | 3.5 ± 0.7 mM | 59 ± 5.4 s⁻¹ | 17000 ± 4000 M⁻¹ s⁻¹ | 100% | 54 s⁻¹ | 3.5 mM | 59 s⁻¹ | 7 | 80 °C | 39.8±3.5 U/mg | –
2 | B2 | – | – | – | – | – | – | – | – | – | – | – | – | – | – | significantly increases

From patent publication US9102922B2, “Trehalose phosphorylases and their use in the biocatalytic production of trehalose-analogues and glycosyl phosphates” (Universiteit Gent, priority 2010, dated 2015)
